The assay has as its target His-tagged recombinant human ACE2 protein (residues 19-740), dimeric (human, UniProt Q9BYF1 19-740). The experiment in a line: BLI.

One may read the koff as a measure of how fast the partners let go of each other.

His-tagged recombinant human ACE2 protein (residues 19-740), dimeric, sequence (Q9BYF1 19-740): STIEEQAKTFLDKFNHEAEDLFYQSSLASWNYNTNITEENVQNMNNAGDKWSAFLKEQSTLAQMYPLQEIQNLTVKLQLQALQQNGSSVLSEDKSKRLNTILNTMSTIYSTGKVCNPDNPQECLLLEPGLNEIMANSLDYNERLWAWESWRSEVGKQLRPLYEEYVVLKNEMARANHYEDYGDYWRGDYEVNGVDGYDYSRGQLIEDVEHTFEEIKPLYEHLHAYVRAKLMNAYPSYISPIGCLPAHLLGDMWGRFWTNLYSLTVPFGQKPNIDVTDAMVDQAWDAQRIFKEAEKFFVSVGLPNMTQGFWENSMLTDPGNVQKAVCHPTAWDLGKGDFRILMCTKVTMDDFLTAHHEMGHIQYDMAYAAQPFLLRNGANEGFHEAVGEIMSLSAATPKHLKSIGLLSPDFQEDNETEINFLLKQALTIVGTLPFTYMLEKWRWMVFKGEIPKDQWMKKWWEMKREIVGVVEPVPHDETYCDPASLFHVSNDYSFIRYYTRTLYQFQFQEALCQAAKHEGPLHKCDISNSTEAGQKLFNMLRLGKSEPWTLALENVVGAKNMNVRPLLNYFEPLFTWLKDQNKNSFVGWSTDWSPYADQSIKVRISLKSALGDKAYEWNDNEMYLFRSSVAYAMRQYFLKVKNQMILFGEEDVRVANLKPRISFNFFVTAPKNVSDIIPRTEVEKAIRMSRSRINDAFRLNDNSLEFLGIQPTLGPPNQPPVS

B1: monoclonal antibody 3E8 (antibody, V domains shown)
VH: EVQLEESGAELVRPGASVKISCKAFGYTFTNHHINWMKQRPGQGLDWIGYVNPYNDYTKYSQNFKGKATLSVDRSSSTAYMELSSLTSEDSAVYYCARWRDYDRDWYFDVWGAGTTVIVSS
VL: DIVMTQSPATLSVTPGDRVSLSCRASQSIRDYLYWYQQKSHESPRLLIKYASQSISGIPSRFSGSGSGSDFTLSINSVEPEDVGVYYCQNGHSFPYTFGGGTKLEIK
For the molecule B1, the koff came to 0.000278 s⁻¹.

Source of the values: paper PMC8385704 (2021).
